Measurements reported in publication PMC3152652.

Columns and labels:
[1] = HEK 293 co-expression, Western blot of conditioned medium; conditions: glycan lost; control: wild type
[2] = HEK 293, Western blot densitometry, pro-BNP to BNP conversion; conditions: glycan lost; control: wild type

pro-BNP (pro-B-type natriuretic peptide): T71A
other: proteolytic processing [1]: increases
other: proteolytic processing [2]: increases
